Test results: publication PMC3564036

Substrate: Nc1ncnc2c1ncn2[C@@H]1O[C@H](COP(=O)(O)OP(=O)(O)O)[C@@H](O)[C@H]1O
Experiment: purified protein
Assay type: biochemical, Homo sapiens
Details: Mg2+

B1: PPIP5K2 (Homo sapiens) (protein)
chain: MSEAPRFFVGPEDTEINPGNYRHFFHHADEDDEEEDDSPPERQIVVGICSMAKKSKSKPMKEILERISLFKYITVVVFEEEVILNEPVENWPLCDCLISFHSKGFPLDKAVAYAKLRNPFVINDLNMQYLIQDRREVYSILQAEGILLPRYAILNRDPNNPKECNLIEGEDHVEVNGEVFQKPFVEKPVSAEDHNVYIYYPTSAGGGSQRLFRKIGSRSSVYSPESNVRKTGSYIYEEFMPTDGTDVKVYTVGPDYAHAEARKSPALDGKVERDSEGKEVRYPVILNAREKLIAWKVCLAFKQTVCGFDLLRANGQSYVCDVNGFSFVKNSMKYYDDCAKILGNIVMRELAPQFHIPWSIPLEAED
Km: 5.2 ± 1.5 µM
kcat: 0.002 s⁻¹
kcat/Km: 370 M⁻¹ s⁻¹
